Test results as given in patent US20150246959A1.

Biological target: MART-1 presented by HLA-A*0201 on 624 mel-CIITA cells (human)
Assay: cell-based or functional assay

F5 (anti-MART-1) TCR
IFN-gamma (pg/ml); Donor 1; 624-CIITA: 1480 pg/mL | IFN-gamma (pg/ml); Donor 2; 624-CIITA: 1440 pg/mL
